Reference: PMC12519261
Where no end group is shown, it is not given here.

Biological target: b1b2 domain of NRP-1 (recombinant)
Assay: pull-down; Ni-NTA magnetic agarose beads coated with the b1b2 domain of NRP-1; fluorescent HLPNs incubated 1 h at room temperature with uPA added; 50 mM Tris pH 7.5, 1 M NaCl, 5 mM imidazole, 0.05% NP40; eluted with 400 mM imidazole, fluorescence of the eluate read

AKRGAR-OH (also: FAM label, site not given here, conjugated to surface of HLPNs) [uPA-cleaved LinTT1 peptide with exposed CendR motif, on HLPNs]
fold increase of binding by uPA treatment (against no uPA): 4 fold
